# Measurements reported in article PMC4943861 (ACS chemical biology, 2015).
# Target: activation loop-phosphorylated ERK2 (Homo sapiens, UniProt P28482)
# Assay: In vitro activity assay against activation loop-phosphorylated ERK2
# Assay type: biochemical
# Settings: read-out: IC50 against ERK2, triplicate
# Chain of activation loop-phosphorylated ERK2 (P28482 whole entry): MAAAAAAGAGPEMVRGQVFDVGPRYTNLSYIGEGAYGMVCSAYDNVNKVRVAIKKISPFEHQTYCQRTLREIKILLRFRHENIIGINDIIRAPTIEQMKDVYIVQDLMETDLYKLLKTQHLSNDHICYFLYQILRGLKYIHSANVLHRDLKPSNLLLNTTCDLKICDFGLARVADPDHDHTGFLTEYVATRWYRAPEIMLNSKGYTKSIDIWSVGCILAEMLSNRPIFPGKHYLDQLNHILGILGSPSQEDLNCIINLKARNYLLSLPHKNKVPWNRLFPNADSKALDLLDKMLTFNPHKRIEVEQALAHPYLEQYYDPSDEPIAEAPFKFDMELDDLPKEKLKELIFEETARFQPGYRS
row,Molecule,IC50
1,SNAP(pE59)-4: bivalent inhibitor of activation loop-phosphorylated ERK2: SNAP(pE59) labeled with 4 (protein) GPGSDKDCEMKRTTLDSPLGKLELSGCEQGLHEIIFLGKGTSAADAVEVPAPAAVLGGPEPLMQATAWLNAYFHQPEAIEEFPVPALHHPVFQQESFTRQVLWKLLKVVKFGEVISYSHLAALAGNPAATAAVKTALSGNPVPILIPCHRVVQGDLDVGGYEGGLAVKEWLLAHEGHRLGKRDLGKKLLEAARAGQDDEVRILMANGADVNALDEDGLTPLHLAAQLGHLEIVEVLLKYGADVNAEDNFGITPLHLAAIRGHLEIVEVLLKHGADVNAQDKFGKTAFDISIDNGNEDLAEILQKLN,0.8 nM
2,"SNAPtag-4: monovalent conjugate of 4 to SNAPtag (protein, SNAPtag is engineered) GPGSDKDCEMKRTTLDSPLGKLELSGCEQGLHEIIFLGKGTSAADAVEVPAPAAVLGGPEPLMQATAWLNAYFHQPEAIEEFPVPALHHPVFQQESFTRQVLWKLLKVVKFGEVISYSHLAALAGNPAATAAVKTALSGNPVPILIPCHRVVQGDLDVGGYEGGLAVKEWLLAHEGHRLGKR",3900 nM
